Source: patent US10279017B2 (priority 2014, dated 2019)
Where two headings read alike, the source gives them in different places.

What was measured:
HASMCs = details: GM6001 released from PLGA coating compared to metallic substrate only; cited from earlier work
[1] = system: human aortic smooth muscle cell (HASMC); details: coating containing GM6001 compared to metallic substrate only, cited from earlier work
MMP2 [2] = biological target: T1, MMP2 (Homo sapiens, UniProt P08253); parameters: endogenous in cells; host or cells: human aortic smooth muscle cells (HASMC); details: GM6001 releasing coating vs metal substrate; cited from earlier work
T1 sequence (P08253 110-660): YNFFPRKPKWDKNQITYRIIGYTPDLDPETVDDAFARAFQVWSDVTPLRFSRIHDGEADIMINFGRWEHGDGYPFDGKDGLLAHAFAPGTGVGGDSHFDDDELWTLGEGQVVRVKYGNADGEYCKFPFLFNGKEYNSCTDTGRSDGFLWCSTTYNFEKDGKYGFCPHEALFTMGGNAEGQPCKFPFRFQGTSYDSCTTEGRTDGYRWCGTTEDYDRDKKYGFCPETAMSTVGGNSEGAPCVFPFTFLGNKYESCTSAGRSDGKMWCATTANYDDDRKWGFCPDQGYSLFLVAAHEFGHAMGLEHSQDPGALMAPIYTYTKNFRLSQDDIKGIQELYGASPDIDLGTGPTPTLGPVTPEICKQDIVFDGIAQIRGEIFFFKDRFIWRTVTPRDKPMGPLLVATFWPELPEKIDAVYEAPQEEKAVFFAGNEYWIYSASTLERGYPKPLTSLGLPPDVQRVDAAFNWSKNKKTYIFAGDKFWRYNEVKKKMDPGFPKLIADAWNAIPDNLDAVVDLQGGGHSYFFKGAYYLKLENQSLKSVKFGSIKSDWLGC

pseudolysin [3] = biological target: T2, pseudolysin (Pseudomonas aeruginosa, UniProt P14756); details: Cathgart G. R. et al, 2011; cited from earlier work
[4] = system: P. aeruginosa cultures VB7623; test: growth curves (OD 600 nm) of clinical isolate; type: cell-based, Pseudomonas aeruginosa
Experimental: (§1) Gentamycin MIC (minimal inhibitory concentration) values were determined using a standard two fold microtiter broth dilution protocol with Nutrient Broth as medium. Midexponential phase cultures of P. aeruginosa reference strain DSM No.: 50071 and two antibiotic-resistant clinical isolates (P. aeruginosa VB7623 and VB7444), which were isolated from the tracheal secrete of a patient, were tested. Antimicrobial susceptibility testing of the clinical isolates was performed by the University Clinic Tubingen. […] Further, the OD (optical density) at 600 nm in the presence and absence of the insect metalloprotease inhibitor IMPI was investigated. For assessing influences of IMPI on bacterial growth final concentrations of IMPI between 20 and 75 μM were used. Bacterial growth was monitored at 37° C. over 48 h. All MIC values were done as triplicates.

[5] = system: P. aeruginosa (DSM No. 50071); test: Gentamycin MIC determination, microtiter broth dilution; type: cell-based, Pseudomonas aeruginosa; details: reference strain DSM No. 50071, partially resistant to Gentamycin
Experimental: as §1

P. aeruginosa = test: synthesis of siderophore pyoverdine; type: cell-based, Pseudomonas aeruginosa; details: IMPIα together with the antibiotic gentamycin
MMP1 = biological target: T3, MMP1 (Homo sapiens, UniProt P03956); details: cited from earlier work
T3 sequence (P03956 100-469): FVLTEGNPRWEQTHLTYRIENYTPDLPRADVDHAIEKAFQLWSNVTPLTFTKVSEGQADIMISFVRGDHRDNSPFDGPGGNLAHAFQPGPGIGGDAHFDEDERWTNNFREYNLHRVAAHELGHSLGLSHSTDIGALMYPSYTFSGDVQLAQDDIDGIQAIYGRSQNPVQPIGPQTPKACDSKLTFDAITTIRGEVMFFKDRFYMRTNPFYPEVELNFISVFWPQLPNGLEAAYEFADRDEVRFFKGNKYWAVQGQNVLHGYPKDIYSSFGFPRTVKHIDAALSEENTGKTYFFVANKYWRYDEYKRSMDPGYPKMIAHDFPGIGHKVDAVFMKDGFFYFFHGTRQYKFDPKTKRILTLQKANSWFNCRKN

bacillolysin = details: cited from earlier work
Pseudomonas aeruginosa = test: formation of freely suspended biofilm in flocs (FIG. 4); type: cell-based; details: incubated with IMPIα at 62.5 and 125 ng/ml Gm doses
Experimental: FIG. 4: The formation of freely suspended biofilm in flocs is a successful strategy used by Pseudomonas aeruginosa to overcome stressfull envionmental conditions (e.g. addition of Gentamicin Gm to buffer; Panel A (62.5 ng/ml) and B (125 ng/ml)).

[6] = system: P. aeruginosa (Clinical Isolate VB7623); test: pyoveridine development and planktonic biofilm in 96-well plate; type: cell-based, Pseudomonas aeruginosa; details: after 48 h
Experimental: FIG. 9: Comparison of the development of pyoveridine (dark grey background in circular light grey structure, i.e. the plate wells) during growth of P. aeruginosa (Clinical Isolate VB7623 from tracheal secrete, assessed as 4MRGN strain [EUCAST]) in presence (lower rectangle) and absence (upper rectangle) of the M4-metalloprotease inhibitor IMPIα (73 μM; NB-Medium No. 5), and different Gentamycin concentrations (32; 8; 4; 2; 1; 0.5; 0.25; 0.125 μg/ml) in a 96-well plate after 48 h. Pyoveridine is not expressed in the concurrent presence of IMPI and Gentamycin, not even at gentamycin concentrations as low as 0.125 μg/
FIG. 15: Comparison of the development of planctonic biofilm and pyoveridine (grey colour in the wells) during growth of P. aeruginosa (clinical isolate VB7623 from tracheal secrete, assessed as 4MRGN strain [EUCAST]) in the presence (black outlined rectangle) and absence (double outlined rectangle) of the M4-metalloprotease inhibitor IMPI (60 μM; NB-Medium No. 5) in a 96-well plate after 48 h.
as §1

pseudolysin [7] = biological target: T2, pseudolysin; details: cited from earlier work
thermolysin = thermolysin (Bacillus thermoproteolyticus, UniProt P00800); details: cited from earlier work
MMP2 [8] = biological target: T1, MMP2; details: cited from earlier work

T2 sequence (P14756 198-498): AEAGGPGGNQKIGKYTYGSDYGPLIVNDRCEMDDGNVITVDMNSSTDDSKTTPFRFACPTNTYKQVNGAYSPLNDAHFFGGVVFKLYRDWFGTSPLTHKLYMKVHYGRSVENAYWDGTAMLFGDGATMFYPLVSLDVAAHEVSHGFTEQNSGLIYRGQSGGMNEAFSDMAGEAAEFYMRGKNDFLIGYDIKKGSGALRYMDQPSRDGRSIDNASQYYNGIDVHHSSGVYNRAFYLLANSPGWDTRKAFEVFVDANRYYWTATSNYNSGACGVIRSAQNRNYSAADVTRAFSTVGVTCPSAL
Sequence of thermolysin (P00800 233-548): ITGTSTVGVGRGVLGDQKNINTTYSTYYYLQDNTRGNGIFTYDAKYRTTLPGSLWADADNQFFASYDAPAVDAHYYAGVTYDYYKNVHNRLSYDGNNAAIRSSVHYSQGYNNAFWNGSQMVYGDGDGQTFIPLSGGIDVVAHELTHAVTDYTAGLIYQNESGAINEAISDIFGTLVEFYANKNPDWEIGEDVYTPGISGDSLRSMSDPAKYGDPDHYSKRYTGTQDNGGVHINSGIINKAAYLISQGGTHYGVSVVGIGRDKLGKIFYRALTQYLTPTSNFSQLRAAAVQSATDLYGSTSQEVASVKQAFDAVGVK

Molecule: CNC(=O)[C@H](Cc1c[nH]c2ccccc12)NC(=O)[C@@H](CC(=O)NO)CC(C)C [GM6001]
- decrease of migration (HASMCs): 21.4%
- reduction of rate of in vitro cell growth ([1]; after 4 days): 30.7%
- reduction of rate of in vitro cell growth ([1]; after 7 days): 37.4%
- MMP-2 activity normalized to cell number (MMP2 [2]): not statistically different

Molecule: NC(=O)C(Cc1ccc(O)cc1)NC(=O)C(Cc1ccccc1)NC(=O)CS (stereo not drawn) [N-mercaptoacetyl-Phe-Tyr-amide]
- Ki (pseudolysin [3]): 41 nM

Molecule: Gentamicin [Gentamycin]
- growth rate ([4]; low concentrations of gentamycin, after 26 h in NB-medium): enhance growth
- growth rate ([4]; very low concentrations of gentamycin): no effect
- MIC [5]: 8 µg/mL

B1: IMPIα: insect metalloproteinase inhibitor from G. mellonella, 69 amino acids; M4-metalloprotease inhibitor (protein, listed as Galleria mellonella)
chain: IVLICNGGHEYYECGGACDNVCADLHIQNKTNCPIINIRCNDKCYCEDGYARDVNGKCIPIKDCPKIRS
- synthesis of pyoverdine (P. aeruginosa): inhibited synergistically
- inhibition (MMP1): negligible inhibition
- IC60 (bacillolysin): 0.86 nM
- biofilm formation (Pseudomonas aeruginosa): biofilm formation is prohibited
- planctonic biofilm ([6]; IMPI 60 μM, no antibiotic): no plantonic biofilm can be observed
- pyoveridine secretion ([6]; IMPI 60 μM, no antibiotic, NB-Medium No. 5): secreted less
- pyoveridine expression ([6]; IMPIα 73 μM with Gentamycin down to 0.125 μg/ml, NB-Medium No. 5): not expressed
- IC60 (pseudolysin [7]): 81.66 nM
- IC60 (thermolysin): 0.62 nM
- inhibition (MMP2 [8]): negligible inhibition
